The values below come from publication PMC10861912, “Viral afterlife: SARS-CoV-2 as a reservoir of immunomimetic peptides that reassemble into proinflammatory supramolecular complexes” (Proceedings of the National Academy of Sciences of the …, 2024).

The data set can be described thus: Linear charge density of the peptide. In kind it is physicochemical.

“LL-37: highly cationic human cathelicidin, host antimicrobial peptide”: the linear charge density entry is listed as “~ +1.1 e/nm”.
